Measured values published in paper PMC11913275, “Targeting prostate cancer by new bispecific monocyte engager directed to prostate-specific membrane antigen” (PLOS One, 2025).

Molecular target: T1, Prostate-specific membrane antigen (Homo sapiens, UniProt Q04609)
T1 construct: also called PSMA; glutamate carboxypeptidase II; source: on PSMA-positive PC3-PIP cells
Experiment: flow cytometry on cells; PSMA-positive PC3-PIP cells (PC3 as negative control) mixed with 5-fold dilution series of the construct, 20 μL, 15 min at 4°C; 5D3-CP33 detected by anti-Strep tag antibody and Alexa Fluor 647 secondary, ch5D3 by anti-human Alexa Fluor 647 secondary; KD by non-linear regression
Conditions: one partner purified

T1 sequence (Q04609 whole entry): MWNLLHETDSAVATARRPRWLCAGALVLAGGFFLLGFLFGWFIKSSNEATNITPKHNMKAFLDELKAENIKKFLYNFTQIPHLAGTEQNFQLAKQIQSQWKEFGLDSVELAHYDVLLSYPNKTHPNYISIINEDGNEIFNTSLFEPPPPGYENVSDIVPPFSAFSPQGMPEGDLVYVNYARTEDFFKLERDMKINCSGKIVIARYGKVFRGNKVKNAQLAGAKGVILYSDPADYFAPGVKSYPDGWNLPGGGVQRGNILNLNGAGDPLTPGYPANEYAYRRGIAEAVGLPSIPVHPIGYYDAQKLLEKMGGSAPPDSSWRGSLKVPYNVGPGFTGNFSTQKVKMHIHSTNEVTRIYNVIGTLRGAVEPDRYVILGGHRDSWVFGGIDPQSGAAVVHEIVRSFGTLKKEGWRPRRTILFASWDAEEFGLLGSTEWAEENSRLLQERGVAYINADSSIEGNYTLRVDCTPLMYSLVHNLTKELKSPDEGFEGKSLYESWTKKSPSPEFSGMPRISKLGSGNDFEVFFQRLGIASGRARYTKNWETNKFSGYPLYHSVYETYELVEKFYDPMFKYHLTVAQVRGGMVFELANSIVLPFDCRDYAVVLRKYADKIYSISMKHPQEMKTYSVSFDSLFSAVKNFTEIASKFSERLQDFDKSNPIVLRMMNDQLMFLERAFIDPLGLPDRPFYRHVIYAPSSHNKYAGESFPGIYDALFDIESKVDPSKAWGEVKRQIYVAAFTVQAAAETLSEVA

Kd: 3.4 nM
B1: 5D3-CP33 bispecific monocyte engager (5D3-scFv HL fused to the N-terminus of CP33) (bispecific antibody, V domains shown)
VH: EVQLQQSGPELVKPGASVKISCKTSGYAFNTSWMNWVKQRPGQGLEWIGRIYPGDGDTNYNGKFKGKATLTADKSSSTAHMHLSSLTSVDSAVYFCARGEWYLYYFDYWGQGTTLTVSS
VL: DIQMTQTTSSLSASLGDRVTISCSASQGINNFLTWYQQKPDGTLKLLIYYTSSLHSGVPSRFSGSGSGTDYSLTIRNLEPEDIATYYCQQYSNLPFTFGGGTKVEIK
notes: VH of the anti-PSMA antibody 5D3 (scFv HL, heavy then light); linker of the 5D3 scFv HL; VL of the anti-PSMA antibody 5D3; The construct has the BiP secretion signal at its N-terminus (vector pMT/BiP/V5-HisA); About 35 kDa; also called 5D3-CP33 fusion; 5D3-scFv-CP33; not shown: SA-strep II, C-terminal, kept
